# Laboratory results as given in patent US20110059082A1.
# What was measured:
# [1] = molecular target: complement factor C1q (purified recombinant C1q) (UniProt P02745); test: flow cytometry, C1q binding to antibody-coated PBMCs, FITC anti-C1q; antibody 9.4 µg/ml
# [2] = molecular target: complement factor C1q (purified recombinant C1q) (UniProt P02745); test: flow cytometry, C1q binding to antibody-coated PBMCs, FITC anti-C1q; antibody 150 µg/ml
# [3] = molecular target: complement factor C1q (purified recombinant C1q) (UniProt P02745); test: flow cytometry, C1q binding to antibody-coated PBMCs, FITC anti-C1q; antibody 4.7 µg/ml
# [4] = molecular target: complement factor C1q (purified recombinant C1q) (UniProt P02745); test: flow cytometry, C1q binding to antibody-coated PBMCs, FITC anti-C1q; antibody 18.8 µg/ml
# [5] = molecular target: complement factor C1q (purified recombinant C1q) (UniProt P02745); test: flow cytometry, C1q binding to antibody-coated PBMCs, FITC anti-C1q; antibody 75.0 µg/ml
# [6] = molecular target: complement factor C1q (purified recombinant C1q) (UniProt P02745); test: flow cytometry, C1q binding to antibody-coated PBMCs, FITC anti-C1q; antibody 37.5 µg/ml
# [7] = molecular target: complement factor C1q (purified recombinant C1q) (UniProt P02745); test: flow cytometry, C1q binding to antibody-coated PBMCs, FITC anti-C1q; antibody 1.2 µg/ml
# [8] = molecular target: complement factor C1q (purified recombinant C1q) (UniProt P02745); test: flow cytometry, C1q binding to antibody-coated PBMCs, FITC anti-C1q; antibody 2.3 µg/ml
# Chain of complement factor C1q (purified recombinant C1q) (P02745 23-245, chain 1 of 3): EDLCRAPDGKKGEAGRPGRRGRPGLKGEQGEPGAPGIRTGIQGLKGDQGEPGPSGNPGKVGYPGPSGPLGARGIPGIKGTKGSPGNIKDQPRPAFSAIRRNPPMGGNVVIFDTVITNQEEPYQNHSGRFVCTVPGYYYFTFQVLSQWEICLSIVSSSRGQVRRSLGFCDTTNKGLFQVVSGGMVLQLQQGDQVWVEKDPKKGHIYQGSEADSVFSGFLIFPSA
# Chain of complement factor C1q (purified recombinant C1q) (P02746 28-253, chain 2 of 3, further chain): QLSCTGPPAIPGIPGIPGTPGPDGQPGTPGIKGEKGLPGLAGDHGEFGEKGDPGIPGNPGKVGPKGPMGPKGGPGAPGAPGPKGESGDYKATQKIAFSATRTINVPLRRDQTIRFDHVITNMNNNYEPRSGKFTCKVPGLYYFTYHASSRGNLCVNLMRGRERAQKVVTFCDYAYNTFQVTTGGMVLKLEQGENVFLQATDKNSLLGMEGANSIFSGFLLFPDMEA
# Chain of complement factor C1q (purified recombinant C1q) (P02747 29-245, chain 3 of 3, further chain): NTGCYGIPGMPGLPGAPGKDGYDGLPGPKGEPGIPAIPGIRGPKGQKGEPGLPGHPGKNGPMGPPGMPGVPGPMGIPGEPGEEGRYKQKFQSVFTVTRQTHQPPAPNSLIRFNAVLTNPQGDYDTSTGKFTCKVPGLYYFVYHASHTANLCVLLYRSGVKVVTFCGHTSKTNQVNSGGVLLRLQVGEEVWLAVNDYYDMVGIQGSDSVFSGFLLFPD
Substance,Mean fluorescence intensity [1] [MFI],Mean fluorescence intensity [2] [MFI],Mean fluorescence intensity [3] [MFI],Mean fluorescence intensity [4] [MFI],Mean fluorescence intensity [5] [MFI],Mean fluorescence intensity [6] [MFI],Mean fluorescence intensity [7] [MFI],Mean fluorescence intensity [8] [MFI]
ATG (Tecelac) (antibody),541,782,491,672,766,732,302,371
humanized B-F5 H37L/L4M IgG1 (BT061) (antibody),210,199,198,217,200,205,193,199
